This is an account of results in paper PMC7661507.

pKd: −log10 of the molar value.

Assay [1] concerns the target recombinant wild-type human histone H1.0 (unlabeled) (human). The experiment in a line: single-molecule FRET; competition titration, freely diffusing molecules; constant 50 pM labeled ProTα and unlabeled H1 (1 to 50 nM), unlabeled ProTα varied; TBS, 165 mM ionic strength.
For assay [2], the target named is H1 V104C/G194C labeled with Alexa Fluor 488/594 (human). The experiment in a line: single-molecule FRET; freely diffusing molecules; labeled protein titrated with the unlabeled partner (labeled ProTα with unlabeled H1, labeled H1 with unlabeled ProTα); TBS, 208 mM ionic strength.
Assay [3] concerns the target recombinant wild-type human histone H1.0 (unlabeled) (human). In words: single-molecule FRET; competition titration, freely diffusing molecules; constant 50 pM labeled ProTα and unlabeled H1 (1 to 50 nM), unlabeled ProTα varied; TBS, 230 mM ionic strength.
For assay [4], the target named is 1:1 complex of ProTα E56C/D110C Alexa488/594 and unlabeled H1 (human). In words: single-molecule FRET; freely diffusing molecules; unlabeled H1 titrated to 50 pM labeled ProTα fully saturated with unlabeled H1 (PH + H ⇌ PHH); TBS, 13 mM ionic strength.
Assay [5] concerns the target Avi-ProTα E56C/D110C, biotinylated, labeled with Cy3B/LD650 (human). In words: single-molecule FRET; freely diffusing molecules; 50 pM labeled ProTα titrated with unlabeled H1; TBS, 200 mM ionic strength.
Assay [6] concerns the target ProTα E55C/D109C labeled with Alexa Fluor 488/594 (human). The assay is described as above.
In assay [7] the target is ProTα E56C/D110C labeled with Alexa Fluor 488/594 (human). The experiment in a line: single-molecule FRET; freely diffusing molecules; 50 pM labeled ProTα titrated with unlabeled H1; TBS, 340 mM ionic strength.
The target of assay [8] is ProTα E56C/D110C labeled with Atto 550/647N (human). The experiment in a line: single-molecule FRET; freely diffusing molecules; labeled protein titrated with the unlabeled partner (labeled ProTα with unlabeled H1, labeled H1 with unlabeled ProTα); TBS, 208 mM ionic strength.
For assay [9], the target named is ProTα S1C/D109C labeled with Alexa Fluor 488/594 (human). The description is as above.
In assay [10] the target is ProTα S1C/E55C labeled with Alexa Fluor 488/594 (human). The description is as above.
In assay [11] the target is ProTα S1C/D110C labeled with Alexa Fluor 488/594 (human). Described as above.
The target of assay [12] is ProTα E56C/D110C labeled with Alexa Fluor 488/594 (human). The assay is described as above.
For assay [13], the target named is ProTα E55C/D109C labeled with Alexa Fluor 488/594 (human). The assay is described as above.
Assay [14] has as its target ProTα E56C/D110C labeled with Cy3B/Abberior STAR635 (human). The assay is described as above.
Assay [15] deals with Avi-ProTα E56C/D110C, biotinylated, labeled with Cy3B/LD650 (human). In words: single-molecule FRET; biotinylated Avi-ProTα immobilised on a PEG/neutravidin surface, unlabeled H1 in solution; two-state model of time traces; TBS in D2O, 230 mM ionic strength.
Assay [16] deals with ProTα E56C/D110C labeled with Alexa Fluor 488/594 (human). In words: single-molecule FRET; freely diffusing molecules; 50 pM labeled ProTα titrated with unlabeled H1; TBS, 240 mM ionic strength.
In assay [17] the target is 1:1 complex of ProTα E56C/D110C Alexa488/594 and unlabeled H1 (human). In words: single-molecule FRET; freely diffusing molecules; unlabeled H1 titrated to 50 pM labeled ProTα fully saturated with unlabeled H1 (PH + H ⇌ PHH); TBS, 8 mM ionic strength.
Assay [18] deals with Avi-ProTα E56C/D110C, biotinylated, labeled with Cy3B/LD650 (human). In words: single-molecule FRET; biotinylated Avi-ProTα immobilised on a PEG/neutravidin surface, unlabeled H1 in solution; two-state model of time traces; TBS in D2O, 275 mM ionic strength.
Assay [19] has as its target ProTα E56C/D110C labeled with Alexa Fluor 488/594 (human). The experiment in a line: stopped-flow fluorescence; 2 nM labeled ProTα mixed with different concentrations of H1; TBS, 165 mM ionic strength; fit with kex = kon cH + KD kon.
Assay [20] has as its target 1:1 complex of ProTα E56C/D110C Alexa488/594 and unlabeled H1 (human). The experiment in a line: single-molecule FRET; freely diffusing molecules; unlabeled H1 titrated to 50 pM labeled ProTα fully saturated with unlabeled H1 (PH + H ⇌ PHH); TBS, 33 mM ionic strength.
For assay [21], the target named is Avi-ProTα E56C/D110C, biotinylated, labeled with Cy3B/LD650 (human). The experiment in a line: single-molecule FRET; biotinylated Avi-ProTα immobilised on a PEG/neutravidin surface, unlabeled H1 in solution; two-state model of time traces; TBS in D2O, 230 mM ionic strength. The source holds these as a separate data set.
Assay [22] has the same target. The experiment in a line: single-molecule FRET; biotinylated Avi-ProTα immobilised on a PEG/neutravidin surface, unlabeled H1 in solution; two-state model of time traces; TBS in D2O, 275 mM ionic strength. This is another data set of the same source.
For assay [23], the target named is 1:1 complex of ProTα E56C/D110C Alexa488/594 and unlabeled H1 (human). The experiment in a line: single-molecule FRET; freely diffusing molecules; unlabeled H1 titrated to 50 pM labeled ProTα fully saturated with unlabeled H1 (PH + H ⇌ PHH); TBS, 18 mM ionic strength.
The target in assay [24] is ProTα E56C/D110C labeled with Alexa Fluor 488/594 (human). The experiment in a line: single-molecule FRET; freely diffusing molecules; 50 pM labeled ProTα titrated with unlabeled H1; TBS, 180 mM ionic strength.
Assay [25] shares this target. In words: single-molecule FRET; freely diffusing molecules; 50 pM labeled ProTα titrated with unlabeled H1; TBS, 290 mM ionic strength.
Assay [26] has as its target 1:1 complex of ProTα E56C/D110C Alexa488/594 and unlabeled H1 (human). In words: single-molecule FRET; freely diffusing molecules; unlabeled H1 titrated to 50 pM labeled ProTα fully saturated with unlabeled H1 (PH + H ⇌ PHH); TBS, 83 mM ionic strength.
For assay [27], the target named is ProTα E56C/D110C labeled with Alexa Fluor 488/594 (human). The experiment in a line: single-molecule FRET; freely diffusing molecules; 50 pM labeled ProTα titrated with unlabeled H1; TBS (10 mM Tris, 0.1 mM EDTA, KCl), 140 mM β-mercaptoethanol, 0.01% Tween 20; 165 mM ionic strength.
Assay [28] concerns the target 1:1 complex of ProTα E56C/D110C Alexa488/594 and unlabeled H1 (human). In words: single-molecule FRET; freely diffusing molecules; unlabeled H1 titrated to 50 pM labeled ProTα fully saturated with unlabeled H1 (PH + H ⇌ PHH); TBS, 58 mM ionic strength.
Assay [29] has the same target. The experiment in a line: single-molecule FRET; rate coefficient of PH + H ⇌ PHH at 200 mM ionic strength; KD extrapolated from lower ionic strengths, kon^PHH assumed equal to kon^PPH.
The target is the same in assay [30]. In words: single-molecule FRET; freely diffusing molecules; unlabeled H1 titrated to 50 pM labeled ProTα fully saturated with unlabeled H1 (PH + H ⇌ PHH); TBS, 23 mM ionic strength.
For assay [31], the target named is ProTα E56C/D110C labeled with Alexa Fluor 488/594 (human). The experiment in a line: single-molecule FRET; freely diffusing molecules; 50 pM labeled ProTα titrated with unlabeled H1; TBS, 330 mM ionic strength.
The target in assay [32] is 1:1 complex of ProTα E56C/D110C Alexa488/594 and unlabeled H1 (human). In words: single-molecule FRET; freely diffusing molecules; unlabeled H1 titrated to 50 pM labeled ProTα fully saturated with unlabeled H1 (PH + H ⇌ PHH); TBS, 43 mM ionic strength.

Sequence of recombinant wild-type human histone H1.0 (unlabeled) (natural protein) (P07305 2-194): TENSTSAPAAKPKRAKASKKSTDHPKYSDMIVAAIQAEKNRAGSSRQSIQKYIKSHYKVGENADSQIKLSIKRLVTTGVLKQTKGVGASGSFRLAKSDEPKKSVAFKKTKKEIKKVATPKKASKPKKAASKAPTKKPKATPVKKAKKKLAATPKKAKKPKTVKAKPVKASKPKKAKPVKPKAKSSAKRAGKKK
Sequence of recombinant wild-type human histone H1.0 (unlabeled) (human) (P07305 2-194): as above

The term pKd denotes the negative decadic logarithm of the Kd, by convention in mol/L. For the substance “ProTα (unlabeled & NMR) (natural protein)”, the results for the negative-log Kd (pKd) in assay [1], in [2] and in [3] were 11.24, 8.46 and 8.19, respectively.
The koff is the rate constant with which the complex falls apart. As a reminder, the kon is a measure of how fast the partners come together. Regarding “recombinant wild-type human histone H1.0 (unlabeled) (natural protein)”, the pKd in [4] was 6.27; in assay [5], 8.95; in assay [6], 9.29; in [7] it was 5.40; in assay [8], 8.51; in assay [9] it was 8.64. Also, the pKd in [10] is 8.89; in assay [11] it was 8.70; in assay [12] it was 9.00; in [13], 8.89; in assay [14], 9.00; in assay [15], 8.70. Further, the pKd in [16] is 7.60; in assay [17], 6.70; in assay [20], 5.88; in [22], 7.23; in [23], 6.15; in assay [24] it was 10.43. Besides, the pKd in [25] is 6.64; in assay [26] it was 5.39; in assay [27] it was 11.68; in assay [28], 5.55; in assay [30], 6.27; in assay [31], 5.85. Further, in assay [32], the negative logarithm of the Kd (pKd) is 5.74. The koff in [15] is 2.8 s⁻¹; in [19], 0.006 s⁻¹; in assay [22], 59 s⁻¹; in [29] it was 6000 s⁻¹. Further, the kon in [15] was determined as 3.1e+09 M⁻¹ s⁻¹; in assay [18], 1.01e+09 M⁻¹ s⁻¹; in assay [19], 3.5e+09 M⁻¹ s⁻¹; in assay [21], 1.4e+09 M⁻¹ s⁻¹; in [22], 3.1e+09 M⁻¹ s⁻¹.
